US20230131339A1, “EPI-X4 BASED PEPTIDES AND DERIVATIVES THEREOF” (Universitaet Ulm, priority 2020, published 2023)
Values joined by “and” are separate entries in the source; they are usually repeats but may differ in a detail not shown here. Equal entries are not always repeated. Where a SMILES comes first, the peptide text is derived from it. Where no end group is shown, it is not given here. Side-chain parts run from the residue outwards. [ ]: non-standard residue; d: D form. The star is where a group is joined. DOTA = O=C(O)CN1CCN(CC(=O)O)CCN(CC(=O)*)CCN(CC(=O)O)CC1; Stearoyl = CCCCCCCCCCCCCCCCCC(=O)*; Palmitoyl = CCCCCCCCCCCCCCCC(=O)*; Glu = glutamate linker

Key:
[1] = system: CXCL12 induced Ca2+-signalling; experiment: Ca++ signaling in BCR-ABL-transformed murine bone marrow cells; format: cell-based; settings: 1 μM
Procedure: Fifth, it was shown that the peptide derivatives inhibit calcium-signaling. CXCL12 stimulation of CXCR4 expressing B-cells leads to a strong calcium-release. In the presence of CXCR4 antagonists this response is reduced.
For calcium measurement, 1×10^6 BCR-ABL-transformed murine bone marrow cells were incubated with 5 μg/mL of Indo-1 (Molecular Probes) and 0.5 μg/mL of pluronic F-127 (Molecular Probes) in Iscove's medium supplemented with 1% FCS (Pan Biotech) at 37° C. for 45 min. Cells were then washed by centrifugation and the cell pellets were resuspended in Iscove's medium with 1% FCS and treated with the EPI-X4 derivatives (1 μM or 0.5 μM) for 10 minutes at room temperature. Cells were pre-warmed for 5 minutes at 37° C. Calcium flux was assessed by FACS measurement at BD LSR Fortessa. After 30 seconds of baseline recording, CXCR4-dependent calcium signaling was determined by stimulating with 100 ng/ml of mouse SDF-1a (PeproTech).

[2] = mice, i.v. tail vein
Procedure: Peptides were injected into the tail vein of mice. 4 hours post injection, mice were sacrificed and blood taken by heart punctation. Plasma was obtained by centrifugation and tested for remaining activity in antibody competition assay. As control, peptide was spiked into native plasma (ex vivo). IC50 values were determined by non-linear regression assuming 1.8 ml in vivo blood volume. Remaining activity was determined by IC50 (ex vivo)/IC50 (in vivo)×100. The tested peptides included JM #143 (SEQ ID NO.: 54), JM #144 (SEQ ID NO.: 55), JM #192 (SEQ ID NO.: 89), JM #180 (SEQ ID NO.: 77), JM #194 (SEQ ID NO.: 91), JM #235 (SEQ ID NO.: 130), JM #198 (SEQ ID NO.: 95), JM #255 (SEQ ID NO.: 150), JM #257 (SEQ ID NO.: 152) and JM #204 (SEQ ID NO.: 99). […] Shown are data from 2 individual mice measured in duplicates.
In vivo stability assay. 100 μl of a 700 μg/ml stock solution of the peptide in 0.9% NaCl was intravenously injected in the tail vein of C57BL/6NCrl (BL6) mice. 4 hours post injection, mice were killed by cervical dislocation. Mouse plasma was obtained by heart punctation. Blood was 19:1 diluted with 0.16 M NaEDTA and centrifuged at 2000×g for 20 min at 4° C. to obtain plasma. Plasma was stored at −80° C. till remaining peptide activity in the plasma was determined by 12G5 antibody competition assay.

[3] = system: CXCR4-tropic X4-HIV-1 (NL4-3); format: cell-based; settings: for IC50: CXCR4-tropic X4- (NL4-3)
[4] = system: CXCL12 induced migration of T-cells; experiment: Migration assay (transwell, Jurkat cells); format: cell-based
Procedure: For each peptide, three independent experiments were performed. The error bars refer to the standard deviation.
Migration assay. Migration assays were performed using 96-well transwell assay plates (Corning Incorporated, Kennebunk, Me., USA) with 5 μm polycarbonate filters. […] Next, 75 μL (0.5×10^5 cells) of Jurkat cells (in assay buffer), together with/without the compounds, were added into the upper chambers. After 4 h at 37° C. (5% CO2), 100 μL of the lower chambers were transferred to a fresh 96 V-well plate and analyzed with Cell-Titer-Glo® assay (Promega, Madison, Wis., USA). The percentage of migrated cells was calculated as described by Balabanian et al. (2005). In order to obtain the relative migration in %, the percentage of migrated cells were normalized to the CXCL12-only control.

[5] = Stability of radiolabeled conjugates in buffer (radiochemical purity over time); format: physicochemical; settings: NH4-acetate buffer pH 5.2, ethanol, room temperature
Procedure: The stability of ^177Lu/^68Ga-labeled DOTA-conjugated peptides in ammonium acetate buffer (0.4 M, pH 5.2) and sodium acetate buffer (0.2 M, pH 4-4.5) was assessed by determining the radiochemical purity (RCP) of each radiolabeled conjugate at different time points (0, 1, 2, 4, and 24 h for ^177Lu-complexes and at 0, 1 and 2 h for ^68Ga-complexes) at room temperature. For this, an aliquot of labeling solution was stored at room temperature. RP-HPLC injections were consecutively performed at the desired time points.
Radiolysis-induced instability of [^177Lu]Lu-labeled DOTA-conjugated peptides over time was tracked by determining the radiochemical purity (Table 3). Results are means±standard deviation from a minimum of two separate experiments.

[6] = Lipophilicity, shake-flask method (n-octanol/PBS pH 7.4); format: physicochemical
Procedure: The hydrophilic/lipophilic character of the ^177Lu/^68Ga-labeled conjugates was determined by the “shake-flask” method. To a pre-saturated solution containing 500 μL of n-octanol and 500 μL of phosphate-buffered saline (PBS) at pH 7.4, 10 μL of 1 picomol ^177Lu/^68Ga-labeled conjugates was added. The solutions were vortexed for 1 h to reach equilibrium and then centrifuged (3000 rpm) for 10 min. Hundred μl of the sample was removed from each phase and measured in a γ-counter. The partition coefficient was calculated as the average of the logarithmic values (n=3) of the ratio between the radioactivity in the organic and the PBS phase. Results are means±standard deviation from a minimum of two separate experiments. ^177Lu/^68Ga-labeled Pentixather, which is a known CXCR4-directed endoradiotherapeutic agent, is used as reference molecule.

[7] = system: CXCL12-induced AKT signaling; experiment: ERK/AKT signaling assay in SupT1 cells: AKT phosphorylation; format: cell-based
Procedure: (§1) Third, the activity of the claimed EPI-X4 derivatives was tested by the effect on CXCL12/CXCR4-mediated ERK (Extracellular-signal Regulated Kinases) and AKT (a serine/threonine-protein kinase) signaling (FIG. 3). In that assay CXCR4 expressing cells are stimulated with the CXCR4 chemokine-ligand CXCL12, which subsequently leads to phosphorylation of ERK and AKT. Preincubation of cells with CXCR4-antagonists blocks those pathways. […] Two or three independent experiments were carried out in triplicates for each peptide in each assay. The error bars refer to the standard deviation.
(§2) ERK/AKT signaling assay. CXCL12 induced ERK and AKT phosphorylation was determined in SupT1 cells. For this, 100,000 cells were seeded per well in a 96-V well plate in 100 μl medium supplemented with 1% FCS. Cells were incubated for 2 hours at 37° C. before 5 μl of compounds were added. After 15 min incubation at 37° C. cells were stimulated by adding 5 μl CXCL12 diluted in PBS to reach a final concentration of 100 ng/ml. Cells were further incubated for 2 min before the reaction was stopped by adding 20 μl of 10% PFA. Cells were fixed for 15 min at 4° C. before PFA was removed and cells permeabilized by adding 100 μl ice cold methanol. After 15 min at 4° C. the methanol was removed, cells were washed and 30 μl primary antibody was added (phospho-p44/42 MAPK (Erk1) (Tyr204)/(Erk2) (Tyr187) (D1H6G) mouse mAb #5726; phosphor-Akt (Ser473) (193H12) rabbit mAb #4058 Cell Signaling) for 1 hour at 4° C. After the antibody was removed and cells were washed secondary antibody was added for 30 min. Cells were washed afterwards and subsequently analyzed by flow cytometry.

[8] = system: CXCL12-induced ERK signaling; experiment: ERK/AKT signaling assay in SupT1 cells: ERK phosphorylation; format: cell-based
Procedure: as §1, §2

[9] = target: T1, CXC chemokine receptor type 4 (CXCR4) (human, UniProt P61073 1-352); experiment: cell-based or functional assay
[10] = target: T2, CXC chemokine receptor type 4 (CXCR4) (human, UniProt P61073 1-352); experiment: competition
T2 chain: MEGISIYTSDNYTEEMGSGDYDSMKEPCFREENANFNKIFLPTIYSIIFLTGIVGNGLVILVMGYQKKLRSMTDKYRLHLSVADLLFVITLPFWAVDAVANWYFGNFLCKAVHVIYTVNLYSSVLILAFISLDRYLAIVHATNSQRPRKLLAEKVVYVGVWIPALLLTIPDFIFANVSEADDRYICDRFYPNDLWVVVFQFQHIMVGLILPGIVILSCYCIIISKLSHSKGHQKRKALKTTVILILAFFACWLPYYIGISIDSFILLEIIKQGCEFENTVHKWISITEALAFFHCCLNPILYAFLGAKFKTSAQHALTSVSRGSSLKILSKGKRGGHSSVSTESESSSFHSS

[11] = target: T2, CXC chemokine receptor type 4 (CXCR4); experiment: competition
[12] = target: T1, CXC chemokine receptor type 4 (CXCR4); experiment: antibody competition assay
Procedure: Antibody competition assay. Competition of compounds with antibody binding was performed on SupT1 cells. For that cells were washed in PBS containing 1% FCS and 50,000 cells were then seeded per well in a 96 V-well plate. Buffer was removed and plates were precooled at 4° C. […] The antibody was used at a concentration closed to its determined Kd. 15 μl compounds were then added to the cells and 15 μl antibody immediately afterwards. Plates were incubated at 4° C. in the dark for 2 hours. Afterwards cells were washed twice with PBS containing 1% FCS and fixed with 2% PFA. Antibody binding was analyzed by flow cytometry (FACS CytoFLEX; Beckman Coulter®).

[13] = target: T2, CXC chemokine receptor type 4 (CXCR4); experiment: 12G5 antibody competition

CCCCCCCCCCCCCCCC(=O)N[C@@H](CCC(=O)O)C(=O)NCCCC[C@H](NC(=O)[C@H](CCCNC(=N)N)NC(=O)[C@H](CO)NC(=O)[C@H](Cc1c[nH]c2ccccc12)NC(=O)[C@H](CCCNC(=N)N)NC(=O)[C@H](CCSC)NC(=O)[C@H](N)CC(C)C)C(N)=O [JM #194, d-LMRWSRK(Glu-Pal)-NH2] (H-[dL]MRWSRK([Glu-Palmitoyl])-NH2; N-terminus assumed)
reduction of CXCL12 induced calcium-signaling [1]: almost completely blocked calcium-signaling
remaining activity in plasma in vivo 8 hours post injection ([2]; 8 hours post injection): about 9%
anti-HIV-1 activity (in words) [3]: strongly increased anti-HIV-1 activity
IC50 [3]: 2 nM
inhibition of CXCL12 induced migration of T-cells (in words) [4]: high activity

CCCCCCCCCCCCCCCC(=O)NCCCC[C@H](NC(=O)[C@H](CCCNC(=N)N)NC(=O)[C@H](CO)NC(=O)[C@H](Cc1c[nH]c2ccccc12)NC(=O)[C@H](CCCNC(=N)N)NC(=O)[C@H](CC(C)C)NC(=O)[C@@H](N)[C@@H](C)CC)C(=O)N[C@@H](CC(C)C)C(=O)N1CCC[C@H]1C(=O)N[C@@H](CS)C(=O)N[C@H](C(=O)N[C@@H](CO)C(=O)O)C(C)C [JM #144, ILRWSRK(Pal)LPCVS]
reduction of CXCL12 induced calcium-signaling [1]: almost completely blocked calcium-signaling
remaining activity in plasma in vivo 4 hours post injection ([2]; 4 hours post injection): 27%

[^177Lu]Lu-DOTA-K-JM#29: ^177Lu-labeled DOTA-K-JM #29 (SEQ ID NO.: 165) ([dL]LRWSRKMPCVSK(DOTA); also: 177Lu complex of DOTA)
Radiochemical purity ([5]; time point 0 h): 98 ± 1%
Radiochemical purity ([5]; time point 1 h): 96 ± 3%
Radiochemical purity ([5]; time point 2 h): 92 ± 9%
Radiochemical purity ([5]; time point 4 h): 90 ± 9%
log DO/PBS pH7.4 [6]: −1.49 ± 0.29

CCCCCCCCCCCCCCCC(=O)N[C@@H](CCC(=O)NCCCC[C@H](NC(=O)[C@H](CCCNC(=N)N)NC(=O)[C@H](CO)NC(=O)[C@H](Cc1c[nH]c2ccccc12)NC(=O)[C@H](CCCNC(=N)N)NC(=O)[C@H](CC(C)C)NC(=O)[C@@H](N)[C@@H](C)CC)C(=O)N[C@@H](CC(C)C)C(=O)N1CCC[C@H]1C(=O)N[C@@H](CS)C(=O)N[C@H](C(=O)N[C@@H](CO)C(=O)O)C(C)C)C(=O)O [JM #143, ILRWSRK(Glu-Pal)LPCVS]
reduction of CXCL12 induced calcium-signaling [1]: almost completely blocked calcium-signaling
reduction of CXCL12-induced AKT signaling ([7]; 0.1 μM): 20-25%
reduction of CXCL12-induced AKT signaling ([7]; 1 μM): ~70%
reduction of CXCL12-induced ERK signaling ([8]; 0.1 μM): 20-25%
reduction of CXCL12-induced ERK signaling ([8]; 1 μM): ~70%
IC50 [3]: 5 nM
fold increase of anti-HIV-1 potency compared to WSC02 ([3]; compared to WSC02): more than 60 fold
inhibition of CXCL12 induced migration of T-cells (in words) [4]: strongly increased antagonistic effect in CXCL12 induced cell migration

ILRWSRK-NH2 [JM#118]
IC50, HIV inhibition assay [9]: > 150 nM
IC50 [10]: 181 nM
IC50 [11]: 224 nM

ILRWSRK(Palmitoyl)LPCVS [JM#144]
IC50, X4-HIV-1 inhibition assay [9]: < 5 nM
IC50 [10]: 125 nM
IC50 [11]: 87 nM

B1: SEQ ID NO.: 164 (peptide)
peptide: ILRWSRK([Glu-Stearoyl])LPSVS
notes: derived from JM#198 by replacing the cysteine at position 10 by a serine; also called ILRWSRK(Glu-Ste)LPSVS
IC50, HIV inhibition assay [9]: > 150 nM
IC50 [12]: < 25 nM

ILRWSRKLPCVS (not fully specified (residue 7)) [JM#198]
IC50, HIV inhibition assay [9]: > 150 nM
IC50 [12]: < 25 nM

[dM]LRWSRK([Glu-Palmitoyl])-NH2 [JM#196]
IC50, HIV inhibition assay [9]: > 150 nM
IC50 [12]: < 25 nM
IC50 [13]: 31 nM

[dM]LRWSRKK-NH2 (not fully specified (residue 8)) [JM#197]
IC50, HIV inhibition assay [9]: > 150 nM
IC50 [12]: < 25 nM

[dL]MRWSRKK-NH2 (not fully specified (residue 8)) [JM#195]
IC50, HIV inhibition assay [9]: 50 nM to 150 nM (2×) and > 150 nM
IC50 [12]: < 25 nM

ILRWSRK([Glu-Palmitoyl])LPCVS [JM#143]
IC50 [10]: 204 nM
IC50 [11]: 176 nM
